The target in assay [1] is T1, human complement protein C6 (human, UniProt P13671 22-934).
T1 construct: also called human C6; C6 antigen
In words: SPR (Biacore 8K). As to the method: (§1) The kinetics of C6 binding was compared for the purified chimeric and lead humanized C601 using surface plasmon resonance (SPR, Biacore 8K). IgG were captured on a protein G sensor chip and binding of C6 measured using a three-fold concentration series of C6 from 0.03 nM-25 nM (FIG. 5). In a second experiment, a two-fold concentration series from 0.31 nM-20 nM C6 was used (FIG. 6). For all antibodies, binding of C6 occurred in a concentration-dependent manner and data could be fitted using a 1:1 model to calculate the association rate (kₒₙ), dissociation rates (kd) and affinity constant (KD). The kinetic data are shown in Table 5, which indicates only small differences between the parameters determined from the two independent experiments.
(§2) Binding ELISAs used Nunc Maxisorp 384-well plates, wells coated with C6, C5b,6 complex or C5 (Complement Technology Inc, TX) and goat anti-human IgG (Fab specific) peroxidase secondary antibodies (Sigma-Aldrich, A0293) for detection. For the thermal stability assay, IgG supernatants were diluted to their EC₈₀ concentration, incubated at different temperatures for 10 min and C6 binding measured by ELISA with the binding signal plotted against temperature. Kinetics of C6 binding were measured by capturing antibodies from supernatant samples using Protein G biosensors and performing a 20 min association step with 2.5 nM C6 and a 20 min dissociation step using the Octet RED96. Precise kinetic measurements were obtained by surface plasmon resonance (Biacore 8K, Cytiva). The IgG were captured on a protein G sensor chip. Binding of C6 measured using a three-fold concentration series of C6 from 0.03 nM-25 nM and data were fitted using a 1:1 model in two independent experiments.

Assay [2] deals with human complement protein C5 (human, UniProt P01031 19-673; P01031 678-1676). In words: ELISA, C5-coated wells. As to the method:
The 20 purified antibodies were tested by ELISA for their abilities to bind human complement proteins C5, C5b6 and C6. The antibodies were divided into two sets for this analysis. MoC601 HuG4K and HuG4K isotype controls were included alongside each set, as was C601HFKC4 HuG4K (aka 3713) expression supernatant from the original transfection as an additional positive control. In addition, three humanized antibodies (C601HFKC4 HuG4K, C601HPKI HuG4K and C601HPKC4 HuG4K) were included within both sets to allow better comparison between the plates. The antibodies all show specificity for C6 with no detectable binding to C5. All humanized antibodies bind to C6 and to C6 as part of the C5b6 complex. The lower plateaus of the C5b6 complex binding curves are explained by less C6 protein being available for binding when wells are coated with C5b6 complex as opposed to C6 alone. […] The EC₅₀ values are included in the figure but slightly different plateau levels observed for the antibodies are influencing the apparent EC₅₀ values. However, it was noted that the EC₅₀ values tended to be lower on the plates for the second set of antibodies. For this reason, a subset of the 20 antibodies was tested in a further ELISA for binding to C6 and C5b6 complex.
as §2

Assay [3] deals with T1, human complement protein C6. Description: ELISA, C6-coated wells, large-scale purified antibody.
The target is the same in assay [4]. In words: C6-binding ELISA, A650 nm; sample 'PBS' (28 days at 37 C) [cont.) E]. The procedure:
(§3) For the serum stability assessment, samples of the purified candidate antibodies are normally incubated in mouse, human and cynomolgus serum at 37 C for 28 days and then tested in an antigen-binding ELISA. Since the anti-C6 antibodies are expected to bind to both human and cynomolgus C6 but not mouse C6, we anticipated that incubating in human or cynomolgus sera would reduce ELISA binding due to occupation of the antibody binding sites by C6 protein from the sera. Therefore, the chimeric and humanized antibodies were tested with human and mouse sera and with human sera from which the C6 protein has been depleted. The C6-binding ELISA was then used to compare the binding abilities of the C601 antibodies that had been incubated in the 3 different sera to antibody samples that were incubated in PBS at 37 C or kept at 4 C (non-incubated).
(§4) The Uncle instrument (Unchained Labs) was used to monitor unfolding via intrinsic fluorescence and aggregation by static light scattering across a temperature gradient to obtain melting temperatures (Tₘ). […] Isoelectric points were determined by capillary isoelectric focusing using a PA800+ (Beckman Coulter). […]

Assay [5] has the same target. Description: SPR (Biacore 8K), IgG on protein G chip, C6 0.03-25 nM 3-fold series, 1:1 fit. The procedure:
as §1, §2

Assay [6] has the same target. In words: SPR (Biacore 8K), IgG on protein G chip, C6 0.31-20 nM 2-fold series, 1:1 fit. The procedure: as §1
For assay [7] the target is unchanged. In words: C6-binding ELISA, A650 nm; sample 'mouse serum' (28 days at 37 C) [cont.) E]. The procedure: as §3, with “The C6-binding ELISA was then used to compare the binding abilities of the C601 antibodies that had been incubated in the 3 different sera to antibody samples that were incubated in PBS at 37 C or kept at 4 C (non-incubated).” left out
as §2, with “Precise kinetic measurements were obtained by surface plasmon resonance (Biacore 8K, Cytiva). The IgG were captured on a protein G sensor chip. Binding of C6 measured using a three-fold concentration series of C6 from 0.03 nM-25 nM and data were fitted using a 1:1 model in two independent experiments.” left out

For assay [8] the target is unchanged. Description: C6-binding ELISA, A650 nm; sample 'PBS, non-incubated' (kept at 4 C) [cont.) E]. The procedure: (§5) The C6-binding ELISA was then used to compare the binding abilities of the C601 antibodies that had been incubated in the 3 different sera to antibody samples that were incubated in PBS at 37 C or kept at 4 C (non-incubated).
as §2, with “Precise kinetic measurements were obtained by surface plasmon resonance (Biacore 8K, Cytiva). The IgG were captured on a protein G sensor chip.” left out
(§6) The Uncle instrument (Unchained Labs) was used to monitor unfolding via intrinsic fluorescence and aggregation by static light scattering across a temperature gradient to obtain melting temperatures (Tₘ). […] Isoelectric points were determined by capillary isoelectric focusing using a PA800+ (Beckman Coulter).

Assay [9] has the same target. Description: C6-binding ELISA, A650 nm; sample 'C6-depleted human serum' (28 days at 37 C) [cont.) E]. As to the method: as §3, with “The C6-binding ELISA was then used to compare the binding abilities of the C601 antibodies that had been incubated in the 3 different sera to antibody samples that were incubated in PBS at 37 C or kept at 4 C (non-incubated).” left out
as §2, with “Precise kinetic measurements were obtained by surface plasmon resonance (Biacore 8K, Cytiva). The IgG were captured on a protein G sensor chip. Binding of C6 measured using a three-fold concentration series of C6 from 0.03 nM-25 nM and data were fitted using a 1:1 model in two independent experiments.” left out

For assay [10] the target is unchanged. In words: C6-binding ELISA, A650 nm; sample 'human serun' (human serum, 28 days at 37 C) [cont.) E]. The procedure: as §3, with “The C6-binding ELISA was then used to compare the binding abilities of the C601 antibodies that had been incubated in the 3 different sera to antibody samples that were incubated in PBS at 37 C or kept at 4 C (non-incubated).” left out
as §2, with “Precise kinetic measurements were obtained by surface plasmon resonance (Biacore 8K, Cytiva). The IgG were captured on a protein G sensor chip. Binding of C6 measured using a three-fold concentration series of C6 from 0.03 nM-25 nM and data were fitted using a 1:1 model in two independent experiments.” left out

The target is the same in assay [11]. Description: C6-binding ELISA, A650 nm; sample 'PBS' (28 days at 37 C) [cont.) F]. As to the method: as §3, §4
Assay [12] has the same target. Description: C6-binding ELISA, A650 nm; sample 'mouse serum' (28 days at 37 C) [cont.) F]. The procedure: as §3, with “The C6-binding ELISA was then used to compare the binding abilities of the C601 antibodies that had been incubated in the 3 different sera to antibody samples that were incubated in PBS at 37 C or kept at 4 C (non-incubated).” left out
as §2, with “Precise kinetic measurements were obtained by surface plasmon resonance (Biacore 8K, Cytiva). The IgG were captured on a protein G sensor chip. Binding of C6 measured using a three-fold concentration series of C6 from 0.03 nM-25 nM and data were fitted using a 1:1 model in two independent experiments.” left out

Assay [13] shares this target. In words: C6-binding ELISA, A650 nm; sample 'PBS, non-incubated' (kept at 4 C) [cont.) F]. The procedure: as §5
as §2, with “Precise kinetic measurements were obtained by surface plasmon resonance (Biacore 8K, Cytiva). The IgG were captured on a protein G sensor chip.” left out
as §6

Assay [14] has the same target. In words: C6-binding ELISA, A650 nm; sample 'C6-depleted human serum' (28 days at 37 C) [cont.) F]. The procedure: as §3, with “The C6-binding ELISA was then used to compare the binding abilities of the C601 antibodies that had been incubated in the 3 different sera to antibody samples that were incubated in PBS at 37 C or kept at 4 C (non-incubated).” left out
as §2, with “Precise kinetic measurements were obtained by surface plasmon resonance (Biacore 8K, Cytiva). The IgG were captured on a protein G sensor chip. Binding of C6 measured using a three-fold concentration series of C6 from 0.03 nM-25 nM and data were fitted using a 1:1 model in two independent experiments.” left out

For assay [15] the target is unchanged. Description: C6-binding ELISA, A650 nm; sample 'human serun' (human serum, 28 days at 37 C) [cont.) F]. As to the method:
as §3, §4

T1 sequence (P13671 22-934 limits assumed): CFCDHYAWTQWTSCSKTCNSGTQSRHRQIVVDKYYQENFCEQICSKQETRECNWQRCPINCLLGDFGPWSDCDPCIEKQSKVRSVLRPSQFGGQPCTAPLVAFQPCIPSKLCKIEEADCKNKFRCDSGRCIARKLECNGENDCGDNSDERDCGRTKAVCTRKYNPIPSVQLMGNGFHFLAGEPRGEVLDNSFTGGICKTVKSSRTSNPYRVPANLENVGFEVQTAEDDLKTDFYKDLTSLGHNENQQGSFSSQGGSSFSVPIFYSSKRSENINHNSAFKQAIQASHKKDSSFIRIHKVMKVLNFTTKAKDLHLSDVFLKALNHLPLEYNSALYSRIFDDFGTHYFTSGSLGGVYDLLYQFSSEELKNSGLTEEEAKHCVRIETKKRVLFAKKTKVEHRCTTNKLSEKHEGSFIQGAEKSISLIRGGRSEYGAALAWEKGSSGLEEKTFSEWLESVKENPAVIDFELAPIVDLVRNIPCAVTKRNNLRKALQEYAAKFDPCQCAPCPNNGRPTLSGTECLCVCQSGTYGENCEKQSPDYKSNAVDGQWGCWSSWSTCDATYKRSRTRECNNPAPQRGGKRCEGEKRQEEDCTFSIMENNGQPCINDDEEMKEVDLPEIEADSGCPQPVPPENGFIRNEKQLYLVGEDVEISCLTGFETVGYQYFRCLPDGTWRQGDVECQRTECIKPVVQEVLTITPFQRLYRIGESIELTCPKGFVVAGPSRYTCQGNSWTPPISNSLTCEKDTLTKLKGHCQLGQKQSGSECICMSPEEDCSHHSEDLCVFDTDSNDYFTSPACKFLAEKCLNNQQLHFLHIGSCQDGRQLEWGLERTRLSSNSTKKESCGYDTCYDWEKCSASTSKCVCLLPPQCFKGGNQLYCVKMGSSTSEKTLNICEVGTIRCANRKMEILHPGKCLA
Chain of human complement protein C5 (P01031 19-673 limits assumed, chain 1 of 2): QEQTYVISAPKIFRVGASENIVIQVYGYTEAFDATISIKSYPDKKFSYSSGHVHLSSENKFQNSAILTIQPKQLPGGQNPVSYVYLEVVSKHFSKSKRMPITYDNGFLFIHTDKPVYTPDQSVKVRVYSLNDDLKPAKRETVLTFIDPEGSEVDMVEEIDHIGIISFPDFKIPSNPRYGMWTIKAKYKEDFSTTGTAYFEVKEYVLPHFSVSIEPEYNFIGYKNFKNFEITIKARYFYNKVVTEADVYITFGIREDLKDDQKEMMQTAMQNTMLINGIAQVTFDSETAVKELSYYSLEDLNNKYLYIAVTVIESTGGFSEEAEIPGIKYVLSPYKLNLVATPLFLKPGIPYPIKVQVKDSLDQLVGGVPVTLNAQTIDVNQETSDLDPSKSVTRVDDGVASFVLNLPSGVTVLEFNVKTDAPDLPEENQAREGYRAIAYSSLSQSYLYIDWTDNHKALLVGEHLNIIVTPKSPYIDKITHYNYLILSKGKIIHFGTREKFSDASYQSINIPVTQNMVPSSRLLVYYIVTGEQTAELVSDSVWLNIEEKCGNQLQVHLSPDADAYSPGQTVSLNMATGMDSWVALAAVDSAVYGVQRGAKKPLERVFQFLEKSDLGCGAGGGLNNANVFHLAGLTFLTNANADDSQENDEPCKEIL
Chain of human complement protein C5 (P01031 678-1676 limits assumed, chain 2 of 2): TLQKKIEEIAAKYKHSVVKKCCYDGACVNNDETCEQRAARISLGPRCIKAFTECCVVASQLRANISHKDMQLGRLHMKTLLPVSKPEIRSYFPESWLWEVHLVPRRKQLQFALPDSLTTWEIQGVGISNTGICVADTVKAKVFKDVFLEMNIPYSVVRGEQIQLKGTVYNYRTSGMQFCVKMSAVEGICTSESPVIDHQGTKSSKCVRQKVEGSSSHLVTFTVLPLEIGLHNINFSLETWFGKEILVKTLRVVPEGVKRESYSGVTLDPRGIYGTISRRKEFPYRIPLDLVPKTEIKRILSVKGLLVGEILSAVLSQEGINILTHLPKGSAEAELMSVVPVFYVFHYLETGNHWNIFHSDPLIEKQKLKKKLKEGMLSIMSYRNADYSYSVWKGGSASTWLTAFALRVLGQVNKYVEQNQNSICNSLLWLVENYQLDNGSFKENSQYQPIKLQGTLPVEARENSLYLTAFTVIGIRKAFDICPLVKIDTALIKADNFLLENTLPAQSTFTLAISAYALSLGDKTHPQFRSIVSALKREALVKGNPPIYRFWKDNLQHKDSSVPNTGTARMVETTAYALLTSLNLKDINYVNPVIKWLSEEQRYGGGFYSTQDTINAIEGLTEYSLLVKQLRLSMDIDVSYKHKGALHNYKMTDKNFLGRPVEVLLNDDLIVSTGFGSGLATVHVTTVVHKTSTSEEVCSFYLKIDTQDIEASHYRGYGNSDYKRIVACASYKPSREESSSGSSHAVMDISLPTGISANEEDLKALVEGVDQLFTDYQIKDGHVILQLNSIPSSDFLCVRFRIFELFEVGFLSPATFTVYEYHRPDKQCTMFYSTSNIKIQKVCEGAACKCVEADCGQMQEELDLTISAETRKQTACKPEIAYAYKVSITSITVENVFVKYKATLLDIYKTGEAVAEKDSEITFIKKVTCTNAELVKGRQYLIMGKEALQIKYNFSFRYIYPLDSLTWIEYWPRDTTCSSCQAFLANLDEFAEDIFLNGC

B1: C601HOKC4 HuG4K (antibody, human IgG4 S228P, kappa, V domains shown)
VH: QVQLVQSGAEVKKPGESLKISCKASGYAFSDYWINWVRQMPGKGLEWMGQIYPGDDDTNYNPSFQGQATLSADKSISTAYLQWSSLKASDTAMYYCAREGYYGYTYVEYFDVWGTGTTVTVSS
VL: QIVLTQSPATLSLSPGERATLSCRASSSVSYLHWYQQKPGQSPRLWIYDTSKRATGIPARFSGSGSGTDYTLTISSLEPEDFAVYYCQQWTSNPLTFGQGTKLEIKR
For the molecule B1, the dissociation constant (Kd) worked out at 0.411 nM in [1], 0.411 nM in assay [5] and 0.284 nM in assay [6]. The binding result in [2] is recorded as “no binding”. Further, the EC50 was 0.21 nM in [3]; 0.18 nM in assay [4]; 0.16 nM in assay [7]; 0.13 nM in assay [8]; 0.15 nM in assay [9]; 0.16 nM in assay [10]. Moreover, the results for the koff in assay [5] and in assay [6] were 0.000492 s⁻¹ and 0.000375 s⁻¹, respectively. The kon in assay [5] turned out to be 1.2e+06 M⁻¹ s⁻¹; in assay [6], 1.32e+06 M⁻¹ s⁻¹.

B2: C601HPKC4 HuG4K (antibody, human IgG4 S228P, kappa)
heavy: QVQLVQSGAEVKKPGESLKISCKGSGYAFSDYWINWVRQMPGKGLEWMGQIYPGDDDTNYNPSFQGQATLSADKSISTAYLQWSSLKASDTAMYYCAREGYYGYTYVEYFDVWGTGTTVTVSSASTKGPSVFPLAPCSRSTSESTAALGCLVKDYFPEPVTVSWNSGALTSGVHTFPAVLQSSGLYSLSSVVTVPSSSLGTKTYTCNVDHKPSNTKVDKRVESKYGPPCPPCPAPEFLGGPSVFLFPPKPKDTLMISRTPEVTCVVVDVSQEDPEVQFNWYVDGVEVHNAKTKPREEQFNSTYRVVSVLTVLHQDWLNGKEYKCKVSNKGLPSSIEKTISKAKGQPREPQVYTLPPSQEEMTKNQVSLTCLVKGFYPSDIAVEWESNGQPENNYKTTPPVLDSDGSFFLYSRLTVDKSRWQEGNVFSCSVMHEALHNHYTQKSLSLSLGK
light: QIVLTQSPATLSLSPGERATLSCRASSSVSYLHWYQQKPGQSPRLWIYDTSKRATGIPARFSGSGSGTDYTLTISSLEPEDFAVYYCQQWTSNPLTFGQGTKLEIKRTVAAPSVFIFPPSDEQLKSGTASVVCLLNNFYPREAKVQWKVDNALQSGNSQESVTEQDSKDSTYSLSSTLTLSKADYEKHKVYACEVTHQGLSSPVTKSFNRGEC
Regarding B2, the Kd in [1] was 0.373 nM; in assay [5] it was 0.373 nM; in assay [6], 0.299 nM. Also, in assay [2], the binding result was “no binding”. Further, the concentration giving a half-maximal response (EC50) amounted to 0.23 nM in [3]; 0.19 nM in assay [11]; 0.16 nM in assay [12]; 0.22 nM in [13]; 0.17 nM in assay [14]; 0.17 nM in [15]. The koff turned out to be 0.000397 s⁻¹ in assay [5] and 0.000355 s⁻¹ in assay [6]. Further, the figures for the on-rate (kon) in [5] and in [6] were 1.07e+06 M⁻¹ s⁻¹ and 1.19e+06 M⁻¹ s⁻¹, respectively.
